Tests used:
[1] = biological target: SARS-CoV-2 B.1.1.7 (variant Alpha) spike on pseudovirus (SARS-CoV-2) (UniProt P0DTC2); test: cell-based or functional assay
[2] = biological target: SARS-CoV-2 D614G spike without stabilizing modifications (on cells or pseudovirus) (SARS-CoV-2) (UniProt P0DTC2); test: cell-based or functional assay

Substance: isotype control antibody with irrelevant binding
- Pseudovirus IC50 [1]: > 5 µM
- Pseudovirus IC50 [2]: > 5 µM
